# Test results reported in patent US10660969B2, “Eight-arm polyethylene glycol derivative, production method therefor, and modified bio-related substance thereof” (priority 2015, dated 2020).
# Legend:
# Mouse hepatoma H22 cells = experiment: Anti-tumor effect in transplanted tumor model; assay type: in vivo, mice; details: H22 subcutaneous tumor; tumors weighed two weeks after transplantation
# Method: An animal model of transplanted tumor was used. Mouse hepatoma H22 cells were transplanted subcutaneously into the right axillary region of mice to form solid tumors. After transplantation for 2 days and 7 days, drugs were administered intravenously via the tail vein as a single dose. Two weeks after transplantation, the mice were sacrificed by cervical dislocation, and the tumors were isolated and weighed.
# [1] = nude mouse
# From the text: The nude mouse model was used to evaluate the maximum tolerated dose of each group. When the body weight of a nude mouse decreased by 20%, the death/survival was monitored and counted.
# [2] = Pharmacokinetics in tumor-free SD rats (HPLC, non-compartmental model); assay type: in vivo, Adult SD rats; details: single dose of 25 mg/kg, within 7 days
# Method: Tumor-free Adult SD rats were administrated a single dose of 25 mg/kg, and four rats were used for each experimental point. The rats were sacrificed at different time points within 7 days, and the concentrations of pegylated irinotecan and its metabolite SN38 were measured and analyzed by HPLC. The analysis of pharmacokinetics was carried out by using a non-compartmental model.
smiles,measurement,setting,value
"CCOC(=O)CC(CN)(CC(=O)OCC)CC(=O)OCC [Example T8, 8arm-PEG-Gly-IRES]","tumor-inhibition ratio, ranking between groups",Mouse hepatoma H22 cells,the highest tumor-inhibition ratio
same,"maximum tolerated dose, ranking between groups",[1],the lowest
same,"apparent elimination half-life of the metabolite SN38, ranking between groups",[2],the longest apparent elimination half-life
